Assay results as given in PMC5071567.
pKd: −log10 of the molar value.

Assays:
[1] = molecular target: transthyretin (UniProt P02766); details: cited from earlier work
[2] = molecular target: megalin (LRP-2) (mouse (endogenous in cultured hippocampal neurons)) (UniProt A2ARV4)
megalin (LRP-2) (mouse (endogenous in cultured hippocampal neurons)), sequence (A2ARV4 26-4660): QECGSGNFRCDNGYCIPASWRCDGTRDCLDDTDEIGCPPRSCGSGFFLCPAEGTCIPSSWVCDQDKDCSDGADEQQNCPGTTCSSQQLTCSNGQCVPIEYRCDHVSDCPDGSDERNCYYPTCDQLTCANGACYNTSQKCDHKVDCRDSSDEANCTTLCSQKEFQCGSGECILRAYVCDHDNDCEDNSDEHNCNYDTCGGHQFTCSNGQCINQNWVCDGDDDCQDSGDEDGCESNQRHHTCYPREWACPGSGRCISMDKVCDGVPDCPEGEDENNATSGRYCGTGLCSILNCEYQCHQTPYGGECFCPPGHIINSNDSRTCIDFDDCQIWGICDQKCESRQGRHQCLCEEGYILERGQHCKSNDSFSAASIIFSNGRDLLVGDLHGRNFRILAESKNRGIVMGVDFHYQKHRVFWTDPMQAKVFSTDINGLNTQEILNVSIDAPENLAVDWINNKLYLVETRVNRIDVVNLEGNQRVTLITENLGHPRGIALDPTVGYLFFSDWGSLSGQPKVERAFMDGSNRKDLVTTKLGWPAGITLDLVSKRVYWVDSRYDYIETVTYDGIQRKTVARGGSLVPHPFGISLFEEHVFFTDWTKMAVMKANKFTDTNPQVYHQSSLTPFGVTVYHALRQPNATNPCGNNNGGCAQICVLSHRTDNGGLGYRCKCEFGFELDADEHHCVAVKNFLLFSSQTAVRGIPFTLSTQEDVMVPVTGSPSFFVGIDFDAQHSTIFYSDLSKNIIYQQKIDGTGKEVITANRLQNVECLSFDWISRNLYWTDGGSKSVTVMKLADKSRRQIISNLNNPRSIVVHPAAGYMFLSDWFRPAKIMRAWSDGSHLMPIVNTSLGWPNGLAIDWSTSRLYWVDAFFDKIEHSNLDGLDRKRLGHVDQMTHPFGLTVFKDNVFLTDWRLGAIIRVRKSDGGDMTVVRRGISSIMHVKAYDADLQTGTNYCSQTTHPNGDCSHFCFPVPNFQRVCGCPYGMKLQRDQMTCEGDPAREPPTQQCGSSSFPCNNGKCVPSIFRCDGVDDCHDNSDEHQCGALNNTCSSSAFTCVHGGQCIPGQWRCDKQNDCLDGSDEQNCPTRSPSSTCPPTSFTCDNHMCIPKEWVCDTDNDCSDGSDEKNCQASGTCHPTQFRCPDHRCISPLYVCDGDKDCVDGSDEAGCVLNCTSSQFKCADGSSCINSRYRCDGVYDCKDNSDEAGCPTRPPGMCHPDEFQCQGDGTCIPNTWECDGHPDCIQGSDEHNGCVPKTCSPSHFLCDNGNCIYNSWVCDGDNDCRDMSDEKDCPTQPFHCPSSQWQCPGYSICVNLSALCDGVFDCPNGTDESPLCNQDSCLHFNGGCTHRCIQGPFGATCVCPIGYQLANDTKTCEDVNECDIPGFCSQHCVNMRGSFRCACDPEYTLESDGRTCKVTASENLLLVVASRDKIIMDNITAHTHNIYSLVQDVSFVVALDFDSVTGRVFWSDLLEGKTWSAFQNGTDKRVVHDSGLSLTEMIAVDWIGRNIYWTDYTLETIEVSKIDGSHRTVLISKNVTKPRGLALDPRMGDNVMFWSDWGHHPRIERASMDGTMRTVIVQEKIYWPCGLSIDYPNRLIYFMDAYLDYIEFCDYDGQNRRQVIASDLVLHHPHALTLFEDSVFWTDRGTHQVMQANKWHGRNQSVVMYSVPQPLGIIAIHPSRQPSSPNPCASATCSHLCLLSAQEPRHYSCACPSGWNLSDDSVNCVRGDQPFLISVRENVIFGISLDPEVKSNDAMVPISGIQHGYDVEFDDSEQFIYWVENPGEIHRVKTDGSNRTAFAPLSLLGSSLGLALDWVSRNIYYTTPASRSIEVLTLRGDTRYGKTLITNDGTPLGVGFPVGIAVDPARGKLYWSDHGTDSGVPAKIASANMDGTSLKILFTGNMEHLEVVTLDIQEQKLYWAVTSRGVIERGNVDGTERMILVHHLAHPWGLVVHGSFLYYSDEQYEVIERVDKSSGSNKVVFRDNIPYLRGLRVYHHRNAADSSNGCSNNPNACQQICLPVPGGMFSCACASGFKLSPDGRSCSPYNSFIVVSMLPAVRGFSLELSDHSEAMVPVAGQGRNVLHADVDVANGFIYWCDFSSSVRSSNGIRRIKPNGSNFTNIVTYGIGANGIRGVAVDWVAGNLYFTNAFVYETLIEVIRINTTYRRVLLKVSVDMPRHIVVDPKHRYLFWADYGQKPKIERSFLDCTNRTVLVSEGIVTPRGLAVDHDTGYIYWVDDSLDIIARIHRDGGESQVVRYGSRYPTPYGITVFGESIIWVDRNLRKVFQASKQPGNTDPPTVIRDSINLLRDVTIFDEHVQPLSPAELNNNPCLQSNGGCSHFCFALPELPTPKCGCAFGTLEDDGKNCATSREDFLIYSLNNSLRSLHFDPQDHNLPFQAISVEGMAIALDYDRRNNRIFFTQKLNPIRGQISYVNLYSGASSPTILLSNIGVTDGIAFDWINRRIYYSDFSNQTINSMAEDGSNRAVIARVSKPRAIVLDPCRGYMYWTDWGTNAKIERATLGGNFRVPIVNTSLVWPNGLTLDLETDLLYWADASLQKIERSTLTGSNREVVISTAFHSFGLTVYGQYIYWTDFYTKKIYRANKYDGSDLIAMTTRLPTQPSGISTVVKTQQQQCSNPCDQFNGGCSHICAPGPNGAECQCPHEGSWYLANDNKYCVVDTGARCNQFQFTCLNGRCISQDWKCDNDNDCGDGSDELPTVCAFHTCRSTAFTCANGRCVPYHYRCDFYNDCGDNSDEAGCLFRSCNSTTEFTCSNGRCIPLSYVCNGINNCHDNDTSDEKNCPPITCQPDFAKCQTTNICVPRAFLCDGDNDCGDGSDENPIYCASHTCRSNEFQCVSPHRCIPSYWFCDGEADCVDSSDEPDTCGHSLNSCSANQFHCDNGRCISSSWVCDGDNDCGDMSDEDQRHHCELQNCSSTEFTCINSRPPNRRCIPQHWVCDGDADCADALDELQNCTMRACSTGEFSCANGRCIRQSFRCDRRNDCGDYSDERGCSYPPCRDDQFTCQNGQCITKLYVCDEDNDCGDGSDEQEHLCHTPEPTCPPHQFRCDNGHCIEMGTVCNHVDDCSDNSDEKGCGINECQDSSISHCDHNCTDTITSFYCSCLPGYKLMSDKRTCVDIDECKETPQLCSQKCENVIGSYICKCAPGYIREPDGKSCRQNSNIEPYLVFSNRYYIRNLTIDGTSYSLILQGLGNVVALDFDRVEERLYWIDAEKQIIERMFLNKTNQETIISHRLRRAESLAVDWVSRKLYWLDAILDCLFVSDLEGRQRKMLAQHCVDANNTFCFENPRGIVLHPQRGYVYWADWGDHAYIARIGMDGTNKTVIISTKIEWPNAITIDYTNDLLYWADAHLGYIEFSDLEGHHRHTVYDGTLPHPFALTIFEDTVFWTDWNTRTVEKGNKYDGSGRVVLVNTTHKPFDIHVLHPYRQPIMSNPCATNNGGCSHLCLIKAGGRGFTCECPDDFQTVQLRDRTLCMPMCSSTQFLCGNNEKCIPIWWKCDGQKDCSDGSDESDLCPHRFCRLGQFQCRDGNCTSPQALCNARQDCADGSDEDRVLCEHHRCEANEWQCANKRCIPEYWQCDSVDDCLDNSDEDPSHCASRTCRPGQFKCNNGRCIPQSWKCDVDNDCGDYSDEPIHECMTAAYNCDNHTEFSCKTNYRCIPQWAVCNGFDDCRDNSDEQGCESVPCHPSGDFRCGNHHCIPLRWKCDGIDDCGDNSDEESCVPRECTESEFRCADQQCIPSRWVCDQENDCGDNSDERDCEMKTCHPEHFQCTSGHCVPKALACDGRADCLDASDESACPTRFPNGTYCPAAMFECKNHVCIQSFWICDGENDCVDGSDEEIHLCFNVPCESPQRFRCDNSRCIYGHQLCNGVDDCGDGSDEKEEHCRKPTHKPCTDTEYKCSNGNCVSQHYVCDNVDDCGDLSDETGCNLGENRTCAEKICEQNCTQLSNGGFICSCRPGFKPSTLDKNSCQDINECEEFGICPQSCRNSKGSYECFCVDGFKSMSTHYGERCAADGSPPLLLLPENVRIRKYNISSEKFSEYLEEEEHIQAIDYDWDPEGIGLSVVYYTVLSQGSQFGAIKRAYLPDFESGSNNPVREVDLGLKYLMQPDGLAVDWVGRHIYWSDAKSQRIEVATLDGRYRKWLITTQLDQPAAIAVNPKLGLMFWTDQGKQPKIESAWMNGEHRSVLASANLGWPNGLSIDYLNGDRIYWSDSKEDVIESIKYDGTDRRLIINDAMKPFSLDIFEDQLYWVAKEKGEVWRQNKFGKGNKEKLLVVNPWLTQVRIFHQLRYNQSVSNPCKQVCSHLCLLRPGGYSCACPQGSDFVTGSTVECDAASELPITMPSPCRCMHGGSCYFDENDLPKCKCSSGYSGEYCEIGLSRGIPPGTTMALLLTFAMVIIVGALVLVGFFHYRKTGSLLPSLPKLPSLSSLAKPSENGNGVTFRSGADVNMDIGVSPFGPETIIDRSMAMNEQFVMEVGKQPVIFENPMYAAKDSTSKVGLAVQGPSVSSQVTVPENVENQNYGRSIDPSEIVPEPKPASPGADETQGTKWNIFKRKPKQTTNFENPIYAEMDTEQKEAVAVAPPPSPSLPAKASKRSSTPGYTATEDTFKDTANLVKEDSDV

Substance | pKd [1] | activation of Src (phospho-Tyr416) by western blot in TTR KO cultured hippocampal neurons, 30 min after mouse TTR (55 μg/ml) [2] | rise of CREB phosphorylation (Ser133) by western blot in TTR KO cultured hippocampal neurons stimulated with mouse TTR (55 μg/ml) [2] | rise of phosphorylated Akt (Ser473) by western blot in TTR KO cultured hippocampal neurons, 30 min after mouse TTR (55 μg/ml) [2] | rise of phosphorylated ERK by western blot in TTR KO cultured hippocampal neurons, 30 min after mouse TTR (55 μg/ml) [2]
megalin (from UniProt P98164) | 6.30 | – | – | – | –
recombinant mouse transthyretin (from UniProt P07309 21-147) (ligand) | – | 30 to 50% | 20% | 23% | 35%
